This note sets out measurements from patent publication US20240075137A1 (COMPUGEN, published 2024).

B1: human TIGIT on cells (receptor)
chain: MMTGTIETTGNISAEKGGSIILQCHLSSTTAQVTQVNWEQQDQLLAICNADLGWHISPSFKDRVAPGPGLGLTLQSLTVNDTGEYFCIYHTYPDGTYTGRIFLEVLESSVAEHGARFQIP
notes: also called Expi293 human TIGIT over-expressing cells

For assay [1], the target named is T1, human PVR-h1Fc (Sino Biological #10109-H20H) (human, UniProt P15151 21-343).
T1 construct: bought; also called hPVR-hFc; Sino PVR-Fc
T1 sequence (looked up): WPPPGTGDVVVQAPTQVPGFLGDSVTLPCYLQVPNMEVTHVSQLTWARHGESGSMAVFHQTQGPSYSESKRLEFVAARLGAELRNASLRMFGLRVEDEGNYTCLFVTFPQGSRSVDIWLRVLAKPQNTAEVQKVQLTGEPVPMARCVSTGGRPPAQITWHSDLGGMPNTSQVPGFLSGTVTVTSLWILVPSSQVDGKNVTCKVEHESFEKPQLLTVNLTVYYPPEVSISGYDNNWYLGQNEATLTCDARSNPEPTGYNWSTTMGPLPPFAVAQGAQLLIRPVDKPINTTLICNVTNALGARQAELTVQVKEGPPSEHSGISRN
Briefly: FACS titration on Expi293 human TIGIT over-expressing cells (gMFI OE:Parental); ± 95% CI; 'Fit: Fair'.

Assay [2] has as its target B1. Briefly: FACS KD on Expi293 human TIGIT over-expressing cells; ± 95% CI of the fit.
The target in assay [3] is T2, human TIGIT ECD with C-terminal polyhistidine tag (human, UniProt Q495A1 22-141).
T2 construct: in-house or Sino Biological; also called hTIGIT-HIS; human TIGIT-HIS
T2 sequence: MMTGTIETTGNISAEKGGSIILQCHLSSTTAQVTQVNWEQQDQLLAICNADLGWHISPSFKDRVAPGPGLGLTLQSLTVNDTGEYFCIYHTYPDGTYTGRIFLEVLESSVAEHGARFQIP
Briefly: SPR (ProteOn), mAb captured, human TIGIT injected.

Assay [4] deals with T3, cyno TIGIT on cells (cynomolgus macaque).
T3 construct: whole, on cells; also called Expi293 cyno TIGIT over-expressing cells
Briefly: FACS KD on Expi293 cyno TIGIT over-expressing cells; ± 95% CI of the fit.

Assay [5] concerns the target T4, Cyno TIGIT-His.
T4 construct: also called cyno TIGIT monomer (prepared in-house); C-terminal HIS-tagged cyno TIGIT ECD recombinant protein
As to the kind of experiment: SPR (ProteOn), mAb captured, cyno TIGIT monomer injected; kd of this row held constant.

The target in assay [6] is T4, Cyno TIGIT-His. As to the kind of experiment: SPR (ProteOn), mAb captured, cyno TIGIT monomer injected.
The target of assay [7] is B1. As to the kind of experiment: FACS blocking: Expi293 human TIGIT cells pre-incubated with mAb, then human PVR-m2aFc; lower gMFI = more blocking.
For assay [8], the target named is T5, Mouse TIGIT-His (mouse, UniProt P86176).
T5 construct: also called mouse TIGIT monomer (prepared in-house)
T5 sequence (soluble monomer with His tag, looked up): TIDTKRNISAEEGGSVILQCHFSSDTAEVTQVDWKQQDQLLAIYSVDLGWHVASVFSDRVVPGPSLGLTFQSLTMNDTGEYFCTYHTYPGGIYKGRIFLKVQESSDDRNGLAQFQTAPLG
As to the kind of experiment: SPR (ProteOn), mAb captured, mouse TIGIT monomer injected.

Assay [9] addresses T6, mouse TIGIT on cells (mouse, UniProt P86176 29-249).
T6 construct: whole, on cells; also called mouse TIGIT over-expressing HEK cells; mouse Tregs
T6 sequence (looked up): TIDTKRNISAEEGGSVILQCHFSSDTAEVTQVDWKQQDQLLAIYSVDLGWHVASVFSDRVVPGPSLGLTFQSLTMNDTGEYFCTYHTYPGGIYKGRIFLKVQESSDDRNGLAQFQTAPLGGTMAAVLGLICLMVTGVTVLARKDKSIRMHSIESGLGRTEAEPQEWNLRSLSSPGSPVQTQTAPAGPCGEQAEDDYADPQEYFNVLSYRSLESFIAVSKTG
Briefly: FACS titration of AF647-labelled mAb on mouse CD4+CD25+Foxp3+ Tregs from Renca tumors; no unit beside the value, nM taken from the axis (binding site).

Assay [10] has as its target T4, Cyno TIGIT-His. As to the kind of experiment: SPR (ProteOn), Cyno TIGIT-His.
For assay [11], the target named is T5, Mouse TIGIT-His. As to the kind of experiment: SPR (ProteOn), Mouse TIGIT-His.
Assay [12] addresses B1. Briefly: FACS blocking of human PVR-m2aFc binding to human TIGIT OE Expi293 cells; binding site concentration; n=1.
Assay [13] addresses T3, cyno TIGIT on cells. Briefly: FACS titration on cyno TIGIT OE Expi293 cells, binding site concentration; ± 95% CI; 'Fit: Good'.
The target in assay [14] is B1. Briefly: FACS titration of AF647-labelled mAb on human effector memory CD8+ T cells, Donor 321.
Assay [15] addresses B1. Briefly: FACS titration of AF647-labelled mAb on human effector memory CD8+ T cells, Donor 322.
The target of assay [16] is B1. As to the kind of experiment: FACS titration on human TIGIT OE Expi293 cells, binding site concentration; ± 95% CI; 'Fit: Good/Excellent'.
Assay [17] has as its target B1. Briefly: FACS blocking of human PVR-m2aFc binding to human TIGIT OE Expi293 cells; binding site concentration; n=2.
Assay [18] deals with B1. Briefly: FACS titration of AF647-labelled mAb on human effector memory CD8+ T cells, Donor 334.
The target in assay [19] is T3, cyno TIGIT on cells. Briefly: FACS titration of AF647-labelled mAb on cyno effector memory CD8+ T cells, Cyno Donor 1; isotype gMFI subtracted.
In assay [20] the target is T2, human TIGIT ECD with C-terminal …. Briefly: SPR (ProteOn), Human TIGIT-His.
Assay [21] concerns the target T3, cyno TIGIT on cells. As to the kind of experiment: FACS titration of AF647-labelled mAb on cyno effector memory CD8+ T cells, Cyno Donor 3; isotype gMFI subtracted.
Assay [22] has as its target T2, human TIGIT ECD with C-terminal …. Briefly: KinExA equilibrium, His-tagged human TIGIT, n = 2.
Assay [23] has the same target. Briefly: KinExA equilibrium, His-tagged human TIGIT, n = 1. Background: In KinExA the mixture passes briefly over coated beads that capture the unbound partner.

T4 sequence (ECD with C-terminal His tag, as listed by the source): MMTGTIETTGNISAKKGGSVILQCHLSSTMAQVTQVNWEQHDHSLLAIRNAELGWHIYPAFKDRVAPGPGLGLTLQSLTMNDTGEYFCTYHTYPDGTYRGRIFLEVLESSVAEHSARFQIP

Usually Kd stands for the constant that tells how readily two partners part at equilibrium. Consider B1, for which the equilibrium dissociation constant (Kd) in assay [1] was 10 nM.

B2: CHA.9.543 (antibody, V domains shown)
VH: EVQLQQSGPELVKPGASMKISCKASGYSFTGYTMNWVRQSHGKNLEWLGLIFPYNGGTSYNQNFKGKATLTVDTSSSTAYMELLSLTSVDSAVYYCARGVRFALDYWGQGTSVSVSS
VL: DVVMTQTPLSLPVSFGDQVSISCRSSQSLANSYGNTYLSWYLHKPGQSPQLLIYEISNRFSGVPDRFSGSGSGTDFTLNISTIKPEDLGMYYCLQGTHQPWTFGGGTKLEIKR
In the case of B2, the dissociation constant (Kd) in assay [2] was found to be 10.2 nM; in assay [3], 0.0231 nM; in assay [4] it was 17.2 nM; in assay [5], 1.55 pM.

B3: CPA.9.059 hIgG4 (antibody, V domains shown)
VH: EVQLVETGGGLIQPGGSLRLSCAASGFTVSSNYMSWVRQAPGKGLEWVSVIYSGGSTYYADSVKGRFTISRDNSKNTLYLQMNSLRAEDTAVYYCARGARYSYGQYPYWGQGTLVTVSS
VL: DIQLTQSPSFLSASVGDRVTITCRASHDISSLFSWYQQKPGKAPKLLIYAASTLQTGVPSRFSGSASGTEFTLTISSLQPEDFATYYCLQLDSFPTWTFGQGTKVEIKR
notes: phage-derived anti-TIGIT, human IgG4; also called CPA.9.059-H4
In the case of B3, binding in assay [2] was put at a Kd of 0.29 nM. Moreover, in assay [3], binding was put at a Kd of 0.0213 nM. For the same molecule, the binding result in assay [6] was “binds”. In addition, in [7], the “gMFI of bound PVR-m2aFc at 266 pM mAb” value is 509, the “gMFI of bound PVR-m2aFc at 1.3 nM mAb” value was found to be 262 and the “gMFI of bound PVR-m2aFc at 6.7 nM mAb” value was 209.

B4: CPA.9.049 hIgG4 (antibody, V domains shown)
VH: EVQLVETGGGLIQPGRSLRLSCAASGFTFSSYAMHWVRQAPGKGLEWVAVISYDGSNKYYADSVKGRFTISRDNSKNTLYLQMNSLRAEDTAVYYCARDPLPLHYYGMDVWGQGTTVTVSS
VL: QSALTQPRSASGNPGQRVTISCSGSSSNMGRRPVNWYQQIPGTAPKLLIYSQNQRPSGVPDRFSGSQSGTSASLTISGLQSEDEAEYFCAVWDDSLFSLLLGGGTQLAVLG
notes: phage-derived anti-TIGIT, human IgG4; also called CPA.9.049-H4
B4: the Kd in [2] turned out to be 0.26 nM; in assay [3] it was 0.0945 nM; in [8], 82.7 nM; in [4] it was 1.88 nM. The “gMFI of bound PVR-m2aFc at 266 pM mAb” value in [7] came to 511. In [7], the “gMFI of bound PVR-m2aFc at 1.3 nM mAb” value is 276. For the same molecule, the “gMFI of bound PVR-m2aFc at 6.7 nM mAb” value in [7] turned out to be 215.

B5: CPA.9.083 reformatted as mouse IgG1 (antibody, V domains shown)
VH: EVQLVETGGGLIQPGRSLRLSCAASGFTFSSYAMHWVRQAPGKGLEWVAVISYDGTPVYYADSVKGRFTISRDNSKNTLYLQMNSLRAEDTAVYYCARDPLPLHYYGMDVWGQGTTVTVSS
VL: QSALTQPRSASGNPGQRVTISCSGSSSNMGRRPVNWYQQIPGTAPKLLIYSQNQRPSGVPDRFSGSQSGTSASLTISGLQSEDEAEYFCAVWDGDRRSLQLGGGTQLAVLG
notes: also called CPA.9.083 mIgG1
Regarding B5, binding in [9] was characterised by a dissociation constant (Kd) of 0.4 nM.

B6: CPA.9.086 reformatted as mouse IgG1 (antibody, V domains shown)
VH: EVQLVETGGGLIQPGRSLRLSCAASGFTFSSYAMHWVRQAPGKGLEWVAVISYAGEVKYYADSVKGRFTISRDNSKNTLYLQMNSLRAEDTAVYYCARDPLPLHYYGMDVWGQGTTVTVSS
VL: QSALTQPRSASGNPGQRVTISCSGSSSNMGRRPVNWYQQIPGTAPKLLIYSQNQRPSGVPDRFSGSQSGTSASLTISGLQSEDEAEYFCAVWDDIGRVLQLGGGTQLAVLG
notes: also called CPA.9.086 mIgG1
Molecule B6 had a Kd in [9] of 0.68 nM.

B7: CPA.9.086.H4(S241P) (antibody, human IgG4 S228P, lambda, V domains shown)
VH: EVQLVETGGGLIQPGRSLRLSCAASGFTFSSYAMHWVRQAPGKGLEWVAVISYAGEVKYYADSVKGRFTISRDNSKNTLYLQMNSLRAEDTAVYYCARDPLPLHYYGMDVWGQGTTVTVSS
VL: QSALTQPRSASGNPGQRVTISCSGSSSNMGRRPVNWYQQIPGTAPKLLIYSQNQRPSGVPDRFSGSQSGTSASLTISGLQSEDEAEYFCAVWDDIGRVLQLGGGTQLAVLG
What is called IC50 is the concentration needed to halve the response being measured. A low value points to greater potency in that assay. In the case of B7, the binding result in [10] is given as “binds”. Besides, the dissociation constant Kd in [11] was 0.663 nM; in [13], 0.3 nM; in assay [14] it was 0.09 nM; in [15], 0.11 nM; in assay [16], 0.35 nM; in assay [18], 0.13 nM. Further, the Kd in [19] was 0.43 nM; in assay [20], 2.3 pM; in assay [21] it was 0.98 nM; in assay [22], 0.665 pM; in [23] it was 0.553 pM. Also, the concentration for half-maximal inhibition (IC50) worked out at 0.36 nM in assay [12] and 0.18 nM in assay [17].
